The values below come from paper PMC2647301.

This data set deals with T1, Y2 I-AniI (Aspergillus nidulans (mitochondrial)?, UniProt P03880 235-488, F247Y;S345Y;F314K;L466K).
T1 sequence: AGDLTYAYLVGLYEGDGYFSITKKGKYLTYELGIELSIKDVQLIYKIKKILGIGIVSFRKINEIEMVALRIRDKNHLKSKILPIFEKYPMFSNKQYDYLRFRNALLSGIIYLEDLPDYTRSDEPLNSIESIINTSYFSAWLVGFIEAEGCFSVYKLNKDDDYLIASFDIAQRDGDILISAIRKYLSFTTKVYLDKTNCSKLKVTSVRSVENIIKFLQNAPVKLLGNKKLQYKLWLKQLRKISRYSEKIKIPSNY
The data set can be described thus: X-ray crystallography.

B1: Y2 co-crystal I-AniI target duplex (dsDNA)
DNA 1: GCGCGCTGAGGAGGTTTCTCTGTAAAGCGCA
DNA 2: GCGCTTTACAGAGAAACCTCCTCAGCGCGCT
With B1, the binding result is recorded as “binds”.
